Assay results reported in the RNAGym collection of RNA variant scans (doi:10.1073/pnas.2313332121).

B1: TPR t1 (parent)
chain: GACCAAUCUGCCCUCAGAGCUCGAGAACAUCUUCGGAUGCAGAGGAGGCAGGCUUCGGUGGCGCGAUAGCGCCAACGUCCUCAACCUCCAAUGCAUCCCACCACAUGAUGAUGCCUGAAGAGCCUUGGUUUUUUG

Variants of: B1
Experiment: polymerase ribozyme fitness, log enrichment relative to wild type (log ratio); higher = more active; in vitro selection for triplet polymerase activity
How it was run: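 Fitness is a logarithmic measure of how a genotype enriched relative to the wild type, with replicate averages weighted by inverse variance. The logarithm uses base 2, and enrichment came from Illumina sequencing of input and output libraries. Those libraries were PCR-built, transcribed mutants of each subunit of a heterodimeric triplet polymerase ribozyme, passed through one triplicate in vitro selection round that included frozen incubation at −7 °C, gel excision of extended constructs and streptavidin-bead capture. Genotypes were kept only if they had ≥10 input reads and ≥1 read per output.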

Variant	polymerase ribozyme fitness (log ratio)
C28U A105C	-4.77
C28G G69U	-0.552
A29C G36U C73U	-3.91
C28G G120C	-1.89
C28U G44U C56A	-4.15
C28G G63C U129A	-4.76
C28G A29U C114G G127C	-5.87
C28U A43U C89G	-5.07
C28U G71A C89A C123G U130C	-3.76
C28G G57C A84U C94U A118U	-2.35
C28G C53U C56U	-2.28
C28A C49U	-4.87
C28U G120C	-1.37
C28U G120U	-1.78
A27U G61C C97U U131A	-4.99
A29C A121U	0.0449
A27U U54G C123U	-1.23
C28U G45A G63C	-3.75
C28G A29G G42U G44A A83U C124U	-7.08
A29G A37U C89U C94U C123A U126A	-3.13
A27U G47A	-4.02
A27U G47C	-4.91
A29G A43G	-2.43
A29G A43C G122A	-4.45

Variant	polymerase ribozyme fitness (log ratio)
A29C C64A U109G G113A	-6.15
A27U G48C C124G U126C G128A	-4.06
A29G C40G A74U U81A U92G C115A	-3.87
C28U A46U C94G	-4.44
C28A G45A C53U G61A G110C	-1.65
C28G C114U	-5.68
A29C A75G C124G U129C	-1.16
C28G G39U C53U G63C U78C C124A	-3.85
A29C G44U C73G C82G U112C C115G	-7.14
C28U G58A	-2.03
A27U G44C C72U C104U	-4.18
C28A C88U C101U	-5.29
A29G C40U G63A C104U G122A	-2.07
C28G C98U	-4.78
C28G U59A C104U G113C	-5
C28G C72A C98A G122U	-5.55
C28U A37U G44U A90C	-3.61
C28U C79G	-4.3
A27U U112C	-1.46
A29C G45A C115U	-4.57
C28G G77U U78A C82U	-3.54
C28A C124A U125C G127U	-3.12
C28G G63A	-4.42
C28G A29C A95G C98U G107A U112A	-5.27

Variant	polymerase ribozyme fitness (log ratio)
C28G C56G C86U C124U	-1.07
A29G C49U G61A C85U	-1.74
C28U A90U A111U	-5.21
A29C C49A G77A U78A	-3.15
C28U C101U G120U	-3.5
C28U C72U U112A G122A U129A	-4.79
C28G G60A	-3.53
A29C G63A G120U	-3.1
C28A A74C G117U	-7.34
A27U U131C	-2.91
C28G G93U	-3.89
C28A G60U A74U A83C G113U	-6.48
A29C U55C C115A U133A	-2.81
C28U C101A C123G G128U	-3.71
A29C A66G G120A	-2.9
A27U G36C G135U	-5.51
C28G A43G G45A C79A C115U G117U	-5.19
A29G C31G U55G C124U	-6.79
A29C G48A A50C	-3.87
A27U G36C G44C G122A U126G	-5.95
A29C C62A	-3
C28G U33A C53A C114U G128U U133A	-7.29
A29C C31G G61U C101U A121U C124A	-5.89
C28G G52A C70U C80A G113C	-7.14

Variant	polymerase ribozyme fitness (log ratio)
A29C G47A G69U	-1.84
C28U C49U G60U A75G	-3.76
C28G G69A A121C	-5.9
A29C	-2.15
A29G	-0.987
C28G G48C A83G A84U G120C	-2.29
C28G A37U G42U C56A U106A G113A C114G	-5.89
C28A G110C C115U U133A	-5.27
C28G U81A U87C	-2.99
C28U C53G G58C G60C	-3.2
A29G C53G C62U U106A G117C	-4.22
A29C C56U U81A	-2.74
C28U C86U	-2.31
A29G A37C G71U G117U	-4.47
C28G U38C G77C A84U U92C G113U U129G	-5.83
C28U A43G C72G U112G	-5.26
A29C G63C U78A U92A G120C	-5.6
C28G C53G U59A C73A C89A U109G A111U G120A	-6.66
C28G U54C A68G G110U	-3.67
C28G G60A C79G	-4.94
A29C G44C C53U C85A C124G	-4.76
C28U G36A G48A	-3.89
C28A G63C	-4.91
C28U A37U	-2.36

Variant	polymerase ribozyme fitness (log ratio)
A27U C123A	-1.74
A29C A74U	-2.93
C28U G39A G61U	-2.23
A29C C124A	-0.296
A29C C124G	-0.564
C28U A43U G48U G52C C86A C101A G117C C124U	-7.22
C28U U59G C86G C89U	-4.05
C28A C99U U106A	-5.34
A29G A103C U106A	-5.73
C28G C73G C104A A111C	-4.53
C28U A29G C72U U112A C124U	-7.83
C28U G52C U106A U112A	-1.6
C28A G60C	-4.02
A27U G60A C62U G120C	-2.69
A27U G48C	-3.79
A29G C31A C56G C99A A121G U129C	-7.31
C28U G52A	-2.18
A29G A50U C73G	-1.85
C28U G63A C88U	-3.69
A27U U54G U116A C124A G127A	-3.59
C28G C40A G71A C94U G110C	-1.03
C28U G45A G63U U78C	-5
A27U C124A	-0.764
C28G G47U C53U	-4.48

Variant	polymerase ribozyme fitness (log ratio)
C28G C53A	-1.99
C28G A50G G69U	-0.817
C28G A37U	-2.45
C28G A37C	-3.7
A27U U55G C56A G69C	-6.66
A29C G63U	-3.09
A29C G60U U87C	-2.47
C28G A95U G110C A111C U133A	-1.6
C28G A84U A103U G110C	-4.22
C28G G47A C56U U116G	-5.77
A29C G93A	-3.03
C28A C73A C124G	-3.22
C28U A83U C86G C123G	-1.55
C28U U92C	-3.43
A29G A121U	0.902
C28U G52C G61A U106A U112A	-1.95
C28G C56A G110U C124U	-0.0721
C28A U38G G60A	-5.64
C28A C124U	-2.12
A27U G47A U59A U106G U133G	-4.03
C28U G93U U112C	-1.92
A27U G52A C73A A91C U112A	-4.52
A29C C49U	-2.86
C28A C88G	-4.25

Variant	polymerase ribozyme fitness (log ratio)
C28G G42A A43C G69U U96A C101U C124U	-4.78
A29C G39C	-3.97
C28G C101U	-3.08
C28G G58C C94A	-3.94
C28A G39U U54C	-4.55
A27U U87G G122A	-3.02
C28U G52U C101U	-4.04
C28U G47A G60C	-3.22
C28G A37C A91C	-6.42
C28A U32C	-3.9
C28U C49G	-3.16
C28U G113C C123G	-3.9
A29G A46C A50G U54C G120U C123A U129C	-4.1
C28A C85U A121U	-3.69
C28U G58C G61C	-2.78
C28A A50C C73A G113A	-4.23
A29G A90C	-2.34
C28G C89A	-4.51
C28U G63A	-3.62
C28U G63U	-3.07
C28U G45A G52A U116C	-4.51
A29G A43U G61U U116C G117U	-0.773
A29G A37C C102A	-4.8
